This note sets out measurements from patent publication US20240132578A1 (published 2024).

Residue numbers refer to the chain shown, from its start.

The target in test [1] is HIV-1 93UG077 Env (clade A pseudovirus) (HIV-1). The test is described as follows: cell-based or functional assay.
Test [2] addresses HIV-1 92UG024 Env (clade D pseudovirus) (HIV-1). The test is described as follows: cell-based or functional assay.
Test [3] has as its target HIV-1 CMU02 Env (CRF01_AE pseudovirus) (HIV-1). The test can be described thus: cell-based or functional assay.
Test [4] has as its target HIV-1 IAVI-C18 Env (clade C pseudovirus) (HIV-1). The test is described as follows: cell-based or functional assay.
The target in test [5] is HIV-1 93IN905 Env (clade C pseudovirus) (HIV-1). The test can be described thus: cell-based or functional assay.
Test [6] deals with HIV-1 JRCSF Env (clade B pseudovirus) (HIV-1, UniProt P20871 32-848). The test is described as follows: cell-based or functional assay.
Test [7] has as its target HIV-1 APV-6 Env (clade B pseudovirus) (HIV-1). The test is described as follows: cell-based or functional assay.
Test [8] addresses HIV-1 APV-13 Env (clade B pseudovirus) (HIV-1). The test is described as follows: cell-based or functional assay.
For test [9], the target named is HIV-1 92RW020 Env (clade A pseudovirus) (HIV-1). The test can be described thus: cell-based or functional assay.
Test [10] addresses HIV-1 APV-17 Env (clade B pseudovirus) (HIV-1). The test can be described thus: cell-based or functional assay.
The target in test [11] is HIV-1 IAVI-C3 Env (clade C pseudovirus) (HIV-1). The test can be described thus: cell-based or functional assay.
The target of test [12] is aMLV envelope (negative control pseudovirus). The test is described as follows: cell-based or functional assay.
Test [13] concerns the target HIV-1 IAVI-C22 Env (clade C pseudovirus) (HIV-1). The test can be described thus: cell-based or functional assay.
Test [14] concerns the target HIV-1 92UG005 Env (clade D pseudovirus) (HIV-1). The test is described as follows: cell-based or functional assay.
Test [15] has as its target HIV-1 92TH021 Env (CRF01_AE pseudovirus) (HIV-1). The test can be described thus: cell-based or functional assay.
The target in test [16] is HIV-1 92BR020 Env (clade B pseudovirus) (HIV-1). The test is described as follows: cell-based or functional assay.
Test [17] concerns the target HIV-1 94UG103 Env (clade A pseudovirus) (HIV-1). The test is described as follows: cell-based or functional assay.
Test [18] addresses T1, recombinant gp41HxB2 (HIV-1 clone HxB2, UniProt P04578 541-682).
T1 construct: domain: gp41
The test can be described thus: ELISA on recombinant gp41. (In an ELISA, binding on a coated surface is turned into a signal by an enzyme label.)

Test [19] concerns the target T2, Recombinant gp41 generated with sequences derived from HxB2 clone of HIV-1, expressed in Pichia pastoris (HIV-1 clone HxB2, UniProt P04578 541-682).
T2 construct: domain: gp41; also called gp41HxB2
The test is described as follows: ELISA, B cell culture supernatant on directly immobilised recombinant gp41.

B1: 1495_C14 (PGC14) (antibody, human IgG1, lambda, V domains shown)
VH: DGHLVQSGVEVKKTGATVKISCKVSGYSFIDYYLHWVQRAPGKGLEWVGLIDPENGEARYAEKFQGRVTIIADTSIDTGYMEMRSLKSEDTAVYFCAAGAVGADSGSWFDPWGQGTLVTVSS
VL: SYELTQPPSVSVSPGQTASITCSGSKLGDKYVSWYQLRPGQSPILVMYENDRRPSGIPERFSGSNSGDTATLTISGTQALDEADFYCQAWETTTTTFVFFGGGTQLTVLG
On to B1, for which the “IC50 (µg/mL), pseudovirus neutralization” value in test [1], in test [2], in test [3], in [4], in test [5] and in [6] was above 50 µg/mL throughout. The “IC50 (µg/mL), pseudovirus neutralization” value in [7] was 7.41 µg/mL; in test [8], above 50 µg/mL; in test [9], 28.6 µg/mL; in test [10] it was above 50 µg/mL; in test [11] it was 9.5 µg/mL; in test [12], above 50 µg/mL. Moreover, the “IC50 (µg/mL), pseudovirus neutralization” value was above 50 µg/mL in [13]; above 50 µg/mL in test [14]; above 50 µg/mL in [15]; 0.64 µg/mL in test [16]; above 50 µg/mL in test [17].

B2: 1495_C14 (PGC14) (antibody, human IgG1, lambda, V domains shown)
VH: B1 VH
VL: B1 VL
Take B2: the binding result in [18] is “no binding”.

B3: B cell culture supernatant of well 1495 C14 (source of antibody 1495_C14 (PGC14)) (antibody, V domains shown)
VH: B1 VH
VL: SYELTQPPSVSVSPGQTASITCSGSKLGDKYVSWYQLRPGQSPILVMYENDRRPSGIPERFSGSNSGDTATLTISGTQALDEADFYCQAWETTTTTFVFFGGGTQLTVL
B3: the binding result in test [19] is reported as “no binding”.

B4: B cell culture supernatant of well 1460 G14 (source of antibody 1460_G14 (PGG14)) (antibody, V domains shown)
VH: QVLLVQSGTEVKKPGSSVKVSCQASGGAFSSYAFSWVRQAPGQGLEWMGMITPVFGETKYAPRFQGRLTLTAEESLSTTYMELRSLTSDDTAFYYCTRDRRVVPMATDNWLDPWGQGTLVTVSS
VL: DIQLTQSPSSLSASVGDRVTVTCRASQTIHTYLNWYQQIPGKAPKLLIYGASTLQSGVPSRFSGSGSGTDFTLTINSLQPEDFATYYCQQSYSTPRTFGQGTRLDIK
With B4, the binding result in test [19] is listed as “no binding”.

B5: 1456_P20 (PG20) (antibody, human IgG1, kappa, V domains shown)
VH: QVRLVQSGPEVKKPGSSVTVSCQASGGTFSSYAFTWVRQAPGQGLEWLGMVTPIFGEAKYSQRFEGRVTITADESTSTTSIELRGLTSEDTAIYYCARDRRAVPIATDNWLDPWGQGTLVTVSS
VL: DIQLTQSPSSLSASVGDRVSITCRASQTINNYLNWYQQTPGKAPKLLIYGASNLQNGVPSRFSGSGSGTDFTLTISSLQPEDFATYYCQQSFSTPRTFGQGTRLDIKR
Turning to B5, the “IC50 (µg/mL), pseudovirus neutralization” value in [1], in test [2], in [3], in test [4], in test [5] and in test [6] was above 50 µg/mL in each case. Also, the “IC50 (µg/mL), pseudovirus neutralization” value in test [7] was 25.8 µg/mL; in [8] it was above 50 µg/mL; in test [9] it was 50 µg/mL; in [10], above 50 µg/mL; in [11] it was above 50 µg/mL; in test [12], above 50 µg/mL. Also, the “IC50 (µg/mL), pseudovirus neutralization” value in test [13], in test [14], in [15], in test [16] and in test [17] was above 50 µg/mL throughout.

B6: B cell culture supernatant of well 1456 P20 (source of antibody 1456_P20 (PG20)) (antibody, V domains shown)
VH: B5 VH
VL: B4 VL with T20S, V21I, H30N, T31N, I39T, T53N, S56N, N76S, Y92F
Turning to B6, the binding result in [19] is “no binding”.

B7: 1460_G14 (PGG14) (antibody, human IgG1, kappa, V domains shown)
VH: B4 VH
VL: B5 VL with S20T, I21V, N30H, N31T, T39I, N53T, N56S, S76N, F92Y
With B7, the binding result in [18] is recorded as “no binding”.

B8: 1460_G14 (PGG14) (antibody, human IgG1, kappa, V domains shown)
VH: B4 VH
VL: B5 VL with S20T, I21V, N30H, N31T, T39I, N53T, N56S, S76N, F92Y
As for B8, the “IC50 (µg/mL), pseudovirus neutralization” value in test [1], in test [2], in [3], in [4], in test [5] and in [6] was above 50 µg/mL each time. The “IC50 (µg/mL), pseudovirus neutralization” value in test [7], in test [8], in test [9], in [10], in [11] and in [12] was above 50 µg/mL in each case. In addition, the “IC50 (µg/mL), pseudovirus neutralization” value in [13], in test [14], in test [15], in test [16] and in test [17] was above 50 µg/mL in each case.

B9: 1456_P20 (PG20) (antibody, human IgG1, kappa, V domains shown)
VH: B5 VH
VL: B5 VL
For B9, in test [18], the binding result was “no binding”.

B10: B cell culture supernatant of well 1443 C16 (source of antibody 1443_C16 (PG16) (TCN-116)) (antibody, V domains shown)
VH: QEQLVESGGGVVQPGGSLRLSCLASGFTFHKYGMHWVRQAPGKGLEWVALISDDGMRKYHSDSMWGRVTISRDNSKNTLYLQFSSLKVEDTAMFFCAREAGGPIWHDDVKYYDFNDGYYNYHYMDVWGKGTTVTVSS
VL: QSALTQPASVSGSPGQTITISCNGTSSDVGGFDSVSWYQQSPGKAPKVMVFDVSHRPSGISNRFSGSKSGNTASLTISGLHIEDEGDYFCSSLTDRSHRIFGGGTKVTVL
As for B10, in [19], the binding result is given as “no binding”.

B11: B cell culture supernatant of well 1496 C9 (source of antibody 1496_C09 (PG9) (TCN-109)) (antibody, V domains shown)
VH: QRLVESGGGVVQPGSSLRLSCAASGFDFSRQGMHWVRQAPGQGLEWVAFIKYDGSEKYHADSVWGRLSISRDNSKDTLYLQMNSLRVEDTATYFCVREAGGPDYRNGYNYYDFYDGYYNYHYMDVWGKGTTVTVSS
VL: QSALTQPASVSGSPGQSITISCNGTSNDVGGYESVSWYQQHPGKAPKVVIYDVSKRPSGVSNRFSGSKSGNTASLTISGLQAEDEGDYYCKSLTSTRRRVFGTGTKLTVL
For the molecule B11, in test [19], the binding result is listed as “no binding”.
